Test results reported in patent US20240117018A1.

How the values were obtained:
Experiment in all cases: cell-based or functional assay
[1] = biological target: HIV-1 Env of pseudovirus 0815.v3.c3 (HIV-1)
[2] = biological target: HIV-1 Env of pseudovirus 211-9 (HIV-1)
[3] = biological target: HIV-1 Env of pseudovirus 231966.c02 (HIV-1)
[4] = biological target: HIV-1 Env of pseudovirus 235-47 (HIV-1)
[5] = biological target: HIV-1 Env of pseudovirus 3016.v5.c45 (HIV-1)
[6] = biological target: HIV-1 Env of pseudovirus 3103.v3.c10 (HIV-1)
[7] = biological target: HIV-1 Env of pseudovirus 3301.v1.c24 (HIV-1)
[8] = biological target: HIV-1 Env of pseudovirus 3817.v2.c59 (HIV-1)
[9] = biological target: HIV-1 Env of pseudovirus 6041.v3.c23 (HIV-1)
[10] = biological target: HIV-1 Env of pseudovirus 620345.c01 (HIV-1)
[11] = biological target: HIV-1 Env of pseudovirus 6480.v4.c25 (HIV-1)
[12] = biological target: HIV-1 Env of pseudovirus 6540.v4.c1 (HIV-1)
[13] = biological target: HIV-1 Env of pseudovirus 6545.v4.c1 (HIV-1)
[14] = biological target: HIV-1 Env of pseudovirus 6811.v7.c18 (HIV-1)
[15] = biological target: HIV-1 Env of pseudovirus 6952.v1.c20 (HIV-1)
[16] = biological target: HIV-1 Env of pseudovirus 89-F1_2_25 (HIV-1)
[17] = biological target: HIV-1 Env of pseudovirus A07412M1.vrc12 (HIV-1)
[18] = biological target: HIV-1 Env of pseudovirus BJOX010000.06.2 (HIV-1)
[19] = biological target: HIV-1 Env of pseudovirus BJOX025000.01.1 (HIV-1)
[20] = biological target: HIV-1 Env of pseudovirus C1080.c03 (HIV-1)
[21] = biological target: HIV-1 Env of pseudovirus C3347.c11 (HIV-1)
[22] = biological target: HIV-1 Env of pseudovirus C4118.c09 (HIV-1)
[23] = biological target: HIV-1 Env of pseudovirus P0402_c2_11 (HIV-1)
[24] = biological target: HIV-1 Env of pseudovirus R1166.c01 (HIV-1)
[25] = biological target: HIV-1 Env of pseudovirus R2184.c04 (HIV-1)
[26] = biological target: HIV-1 Env of pseudovirus T251-18 (HIV-1)
[27] = biological target: HIV-1 Env of pseudovirus T255-34 (HIV-1)
[28] = biological target: HIV-1 Env of pseudovirus T278-50 (HIV-1)
[29] = biological target: HIV-1 Env of pseudovirus X1193_c1 (HIV-1)
[30] = biological target: HIV-1 Env of pseudovirus X2088_c9 (HIV-1)
[31] = biological target: HIV-1 Env of pseudovirus X2131_C1_B5 (HIV-1)
[32] = biological target: HIV-1 Env of pseudovirus 191084 B7-19 (HIV-1)
[33] = biological target: HIV-1 Env of pseudovirus 191955_A11 (HIV-1)
[34] = biological target: HIV-1 Env of pseudovirus 263-8 (HIV-1)
[35] = biological target: HIV-1 Env of pseudovirus 9004SS_A3_4 (HIV-1)
[36] = biological target: HIV-1 Env of pseudovirus 928-28 (HIV-1)
[37] = biological target: HIV-1 Env of pseudovirus R3265.c06 (HIV-1)

Substance: 10-1074 (antibody)
- IC50 neutralization (TZM.bl) [1]: 0.03 µg/mL
- IC80 neutralization (TZM.bl) [1]: 0.138 µg/mL
- IC50 neutralization (TZM.bl) [2]: 0.112 µg/mL
- IC80 neutralization (TZM.bl) [2]: 0.425 µg/mL
- IC50 neutralization (TZM.bl) [3]: > 50 µg/mL
- IC80 neutralization (TZM.bl) [3]: > 50 µg/mL
- IC50 neutralization (TZM.bl) [4]: 0.05 µg/mL
- IC80 neutralization (TZM.bl) [4]: 0.163 µg/mL
- IC50 neutralization (TZM.bl) [5]: > 50 µg/mL
- IC80 neutralization (TZM.bl) [5]: > 50 µg/mL
- IC50 neutralization (TZM.bl) [6]: 0.037 µg/mL
- IC80 neutralization (TZM.bl) [6]: 0.101 µg/mL
- IC50 neutralization (TZM.bl) [7]: 0.013 µg/mL
- IC80 neutralization (TZM.bl) [7]: 0.042 µg/mL
- IC50 neutralization (TZM.bl) [8]: 3.15 µg/mL
- IC80 neutralization (TZM.bl) [8]: 14.9 µg/mL
- IC50 neutralization (TZM.bl) [9]: > 50 µg/mL
- IC80 neutralization (TZM.bl) [9]: > 50 µg/mL
- IC50 neutralization (TZM.bl) [10]: > 50 µg/mL
- IC80 neutralization (TZM.bl) [10]: > 50 µg/mL
- IC50 neutralization (TZM.bl) [11]: 0.009 µg/mL
- IC80 neutralization (TZM.bl) [11]: 0.041 µg/mL
- IC50 neutralization (TZM.bl) [12]: > 50 µg/mL
- IC80 neutralization (TZM.bl) [12]: > 50 µg/mL
- IC50 neutralization (TZM.bl) [13]: > 50 µg/mL
- IC80 neutralization (TZM.bl) [13]: > 50 µg/mL
- IC50 neutralization (TZM.bl) [14]: 0.002 µg/mL
- IC80 neutralization (TZM.bl) [14]: 0.01 µg/mL
- IC50 neutralization (TZM.bl) [15]: 0.037 µg/mL
- IC80 neutralization (TZM.bl) [15]: 0.138 µg/mL
- IC50 neutralization (TZM.bl) [16]: > 50 µg/mL
- IC80 neutralization (TZM.bl) [16]: > 50 µg/mL
- IC50 neutralization (TZM.bl) [17]: < 0.001 µg/mL
- IC80 neutralization (TZM.bl) [17]: 0.048 µg/mL
- IC50 neutralization (TZM.bl) [18]: > 50 µg/mL
- IC80 neutralization (TZM.bl) [18]: > 50 µg/mL
- IC50 neutralization (TZM.bl) [19]: > 50 µg/mL
- IC80 neutralization (TZM.bl) [19]: > 50 µg/mL
- IC50 neutralization (TZM.bl) [20]: > 50 µg/mL
- IC80 neutralization (TZM.bl) [20]: > 50 µg/mL
- IC50 neutralization (TZM.bl) [21]: > 50 µg/mL
- IC80 neutralization (TZM.bl) [21]: > 50 µg/mL
- IC50 neutralization (TZM.bl) [22]: > 50 µg/mL
- IC80 neutralization (TZM.bl) [22]: > 50 µg/mL
- IC50 neutralization (TZM.bl) [23]: 0.012 µg/mL
- IC80 neutralization (TZM.bl) [23]: 0.039 µg/mL
- IC50 neutralization (TZM.bl) [24]: > 50 µg/mL
- IC80 neutralization (TZM.bl) [24]: > 50 µg/mL
- IC50 neutralization (TZM.bl) [25]: > 50 µg/mL
- IC80 neutralization (TZM.bl) [25]: > 50 µg/mL
- IC50 neutralization (TZM.bl) [26]: 1.08 µg/mL
- IC80 neutralization (TZM.bl) [26]: 7.39 µg/mL
- IC50 neutralization (TZM.bl) [27]: > 50 µg/mL
- IC80 neutralization (TZM.bl) [27]: > 50 µg/mL
- IC50 neutralization (TZM.bl) [28]: 2.15 µg/mL
- IC80 neutralization (TZM.bl) [28]: 18.3 µg/mL
- IC50 neutralization (TZM.bl) [29]: 0.083 µg/mL
- IC80 neutralization (TZM.bl) [29]: 0.475 µg/mL
- IC50 neutralization (TZM.bl) [30]: 0.003 µg/mL
- IC80 neutralization (TZM.bl) [30]: 0.014 µg/mL
- IC50 neutralization (TZM.bl) [31]: 0.016 µg/mL
- IC80 neutralization (TZM.bl) [31]: 0.064 µg/mL

Substance: PGT151 (antibody)
- IC50 (Titer in TZM.bl cells) [1]: > 50 µg/mL
- IC80 (Titer in TZM.bl cells) [1]: > 50 µg/mL
- neutralization IC50 [32]: 0.004 µg/mL
- neutralization IC80 [32]: 0.016 µg/mL
- neutralization IC50 [33]: 0.004 µg/mL
- neutralization IC80 [33]: 0.014 µg/mL
- IC50 (Titer in TZM.bl cells) [2]: 0.002 µg/mL
- IC80 (Titer in TZM.bl cells) [2]: 0.01 µg/mL
- IC50 (Titer in TZM.bl cells) [3]: 0.025 µg/mL
- IC80 (Titer in TZM.bl cells) [3]: 0.183 µg/mL
- IC50 (Titer in TZM.bl cells) [4]: 38.1 µg/mL
- IC80 (Titer in TZM.bl cells) [4]: > 50 µg/mL
- neutralization IC50 [34]: > 50 µg/mL
- neutralization IC80 [34]: > 50 µg/mL
- IC50 (Titer in TZM.bl cells) [5]: 0.174 µg/mL
- IC80 (Titer in TZM.bl cells) [5]: 40.7 µg/mL
- IC50 (Titer in TZM.bl cells) [6]: 0.014 µg/mL
- IC80 (Titer in TZM.bl cells) [6]: 0.202 µg/mL
- IC50 (Titer in TZM.bl cells) [7]: 0.002 µg/mL
- IC80 (Titer in TZM.bl cells) [7]: 0.019 µg/mL
- IC50 (Titer in TZM.bl cells) [8]: > 50 µg/mL
- IC80 (Titer in TZM.bl cells) [8]: > 50 µg/mL
- IC50 (Titer in TZM.bl cells) [9]: 0.004 µg/mL
- IC80 (Titer in TZM.bl cells) [9]: 0.024 µg/mL
- IC50 (Titer in TZM.bl cells) [10]: > 50 µg/mL
- IC80 (Titer in TZM.bl cells) [10]: > 50 µg/mL
- IC50 (Titer in TZM.bl cells) [12]: 0.006 µg/mL
- IC80 (Titer in TZM.bl cells) [12]: 0.03 µg/mL
- IC50 (Titer in TZM.bl cells) [13]: 0.004 µg/mL
- IC80 (Titer in TZM.bl cells) [13]: 0.026 µg/mL
- IC50 (Titer in TZM.bl cells) [14]: > 50 µg/mL
- IC80 (Titer in TZM.bl cells) [14]: > 50 µg/mL
- IC50 (Titer in TZM.bl cells) [15]: 49.2 µg/mL
- IC80 (Titer in TZM.bl cells) [15]: > 50 µg/mL
- IC50 (Titer in TZM.bl cells) [16]: 22.9 µg/mL
- IC80 (Titer in TZM.bl cells) [16]: > 50 µg/mL
- neutralization IC50 [35]: 0.003 µg/mL
- neutralization IC80 [35]: 0.015 µg/mL
- neutralization IC50 [36]: > 50 µg/mL
- neutralization IC80 [36]: > 50 µg/mL
- IC50 (Titer in TZM.bl cells) [17]: 0.246 µg/mL
- IC80 (Titer in TZM.bl cells) [17]: > 50 µg/mL
- IC50 (Titer in TZM.bl cells) [18]: > 50 µg/mL
- IC80 (Titer in TZM.bl cells) [18]: > 50 µg/mL
- IC50 (Titer in TZM.bl cells) [19]: > 50 µg/mL
- IC80 (Titer in TZM.bl cells) [19]: > 50 µg/mL
- IC50 (Titer in TZM.bl cells) [20]: > 50 µg/mL
- IC80 (Titer in TZM.bl cells) [20]: > 50 µg/mL
- IC50 (Titer in TZM.bl cells) [21]: > 50 µg/mL
- IC80 (Titer in TZM.bl cells) [21]: > 50 µg/mL
- IC50 (Titer in TZM.bl cells) [22]: > 50 µg/mL
- IC80 (Titer in TZM.bl cells) [22]: > 50 µg/mL
- IC50 (Titer in TZM.bl cells) [23]: < 0.001 µg/mL
- IC80 (Titer in TZM.bl cells) [23]: 0.004 µg/mL
- IC50 (Titer in TZM.bl cells) [24]: > 50 µg/mL
- IC80 (Titer in TZM.bl cells) [24]: > 50 µg/mL
- IC50 (Titer in TZM.bl cells) [25]: > 50 µg/mL
- IC80 (Titer in TZM.bl cells) [25]: > 50 µg/mL
- IC50 (Titer in TZM.bl cells) [37]: > 50 µg/mL
- IC80 (Titer in TZM.bl cells) [37]: > 50 µg/mL
- IC50 (Titer in TZM.bl cells) [26]: 0.327 µg/mL
- IC80 (Titer in TZM.bl cells) [26]: > 50 µg/mL
- IC50 (Titer in TZM.bl cells) [27]: 0.002 µg/mL
- IC80 (Titer in TZM.bl cells) [27]: 0.01 µg/mL
- IC50 (Titer in TZM.bl cells) [28]: 0.13 µg/mL
- IC80 (Titer in TZM.bl cells) [28]: > 50 µg/mL
- IC50 (Titer in TZM.bl cells) [29]: 0.004 µg/mL
- IC80 (Titer in TZM.bl cells) [29]: 0.027 µg/mL
- IC50 (Titer in TZM.bl cells) [30]: > 50 µg/mL
- IC80 (Titer in TZM.bl cells) [30]: > 50 µg/mL
- IC50 (Titer in TZM.bl cells) [31]: 0.007 µg/mL
- IC80 (Titer in TZM.bl cells) [31]: 0.036 µg/mL
